Target: Rac1 (African green monkey (endogenous in COS-1))

| percent inhibition by 1A-116 (50 uM, 24 h) of the SRE-luciferase activity elicited by the activated GEF in COS-1 cells | Binder |
| --- | --- |
| 60% | oncogenic Dbl (domain or fragment) HVLNELIQTERVYVRELYTVLLGYRAEMDNPEMFDLMPPLLRNKKDILFGNMAEIYEFHNDIFLSSLENCAHAPERVGPCFLERKDDFQMYAKYCQNKPRSETIWRKYSECAFFQECQRKLKHRLRLDSYLLKPVQRITKYQLLLKELLKYSKDCEGSALLKKALDAMLDLLKSVNDSMHQIAINGYIGNLNELGKMIMQGGFSVWIGHKKGATKMKDLARFKPMQRHLFLYEKAIVFCKRRVESGEGSDRYPSYSFKHCWKMDEVGITEYVKGDNRKFEIWYGEKEEVYIVQASNVDVKMTWLKEIRNILLKQQELLTVKKRKQQDQLTERDKFQISLQQNDEKQQGAFISTEETELEHTSTVVEVCEAIASVQAEANTVWTEASQSAEISEEPAEWSSNYFYPTYDENEEENRPLMRPVSEMALLY |
| 75% | Tiam1 C1199 (aa 391-1590) (domain or fragment) LEMSTTNSESLEEAGSAHSDEQSSGTLSSPGQSDILLTAAQGTVRKAGALAVKNFLVHKKNKKVESATRRKWKHYWVSLKGCTLFFYETDGRSGIDHNSVPKHAVWVENSIVQAVPEHPKKDFVFCLSNSLGDAFLFQTTSQTELENWITAIHSACAAAVARHHHKEDTLRLLKSEIKKLEQKIDMDEKMKKMGEMQLSSVTDSKKKKTILDQIFVWEQNLEQFQMDLFRFRCYLASLQGGELPNPKRLLAFASRPTKVAMGRLGIFSVSSFHALVAARTGEIGVRRRTQAMSRSASKRRSRFSSLWGLDTTSKKKQGRPTINQVFGEGTDAVKRSLEGIFDDTVPDGKREKEVVLPSVHQHNPDCDIWVHEYFTPSWFCLPNNQPALTVVRPGDTARDTLELICKTHQLDHSAHYLRLKFLMENRVQFYIPQPEEDIYELLYKEIEICPKVTQNIHIEKSDAAADNYGFLLSSVDEDGIRRLYVNSVKETGLASKKGLKAGDEILEINNRAAGTLNSSMLKDFLSQPSLGLLVRTYPEPEGGVELLENPPHRVDGPVDLGESPLAFLTSNPGHSLSSEQGSSAETAPEEGEGPDLESSDETDHSSKSTEQVAAFCRSLHEMSPSDSSPSPQDATSPQLATTRQLSDADKLRKVICELLETERTYVKDLNCLMERYLKPLQKETFLTQDELDVLFGNLTEMVEFQVEFLKTLEDGVRLVPDLEKLEKVDQFKKVLFSLGGSFLYYADRFKLYSAFCASHTKVPKVLVKAKTDTAFKAFLDAQNPRQQHSSTLESYLIKPIQRVLKYPLLLRELFALTDAESEEHYHLDVAIKTMNKVASHINEMQKIHEEFGAVFDQLIAEQTGEKKEVADLSMGDLLLHTSVIWLNPPASLGKWKKEPELAAFVFKTAVVLVYKDGSKQKKKLVGSHRLSIYEEWDPFRFRHMIPTEALQVRALPSADAEANAVCEIVHVKSESEGRPERVFHLCCSSPESRKDFLKSVHSILRDKHRRQLLKTESLPSAQQYVPFGGKRLCALKGARPAMSRAVSAPSKSLGRRRRRLARNRFTIDSDAISASSPEKEPQQPAGGGDTDRWVEEQFDLAQYEEQDDIKETDILSDDDEFCESLKGASVDRDLQEQLQAASISQRARGRRTLDSHASRMTQLKKQAALSGINGGLESASEEVIWVRREDFAPSRKLNTE |
